From patent US20230192897A1 (NUMAB THERAPEUTICS, published 2023)
Values joined by “and” are separate entries in the source; they are usually repeats but may differ in a detail not shown here. Equal values may be shown once. Read-outs that look alike come from different tables or passages of the source. Each block holds one molecule with its values, some of them ahead of it.

Experiments:
[1] = biological target: T1, CD137 on Jurkat NFkB reporter cells (human, UniProt Q07011 24-255); assay: cell-based or functional assay
[2] = biological target: T1, CD137 on Jurkat NFkB reporter cells; assay: cell-based or functional assay; remark: listed apart in the source
[3] = biological target: T1, CD137 on Jurkat NFkB reporter cells; assay: cell-based or functional assay; remark: listed apart in the source
[4] = biological target: T1, CD137 on Jurkat NFkB reporter cells; assay: cell-based or functional assay; remark: listed apart in the source
[5] = biological target: T2, mouse CD137-Fc chimeric protein (mouse, UniProt P20334 24-187, limits assumed); assay: SPR
T2 sequence (looked up): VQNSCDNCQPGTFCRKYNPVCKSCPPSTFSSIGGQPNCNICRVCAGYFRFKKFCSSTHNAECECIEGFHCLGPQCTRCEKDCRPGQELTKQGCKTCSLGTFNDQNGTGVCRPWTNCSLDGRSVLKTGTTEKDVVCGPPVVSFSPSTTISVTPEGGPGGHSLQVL
How it was run: (§1)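 Kinetics were fitted with a one-to-one Langmuir model to give apparent ka, kd and KD. Binders at 0.12-90 nM (three-fold series) flowed 3 min, with 10 min dissociation and 3 M MgCl₂ regeneration, on a Biacore T200.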

[6] = biological target: T3, Fc tagged human PDL1 (human, UniProt Q9NZQ7 19-239); assay: SPR
T3 construct: Bought (Sino Biological, cat. 10084-H02H); captured on the SPR chip; also called PDL1-Fc chimeric protein
How it was run: as §1

[7] = biological target: T4, Fc tagged human CD137 (human, UniProt Q07011 24-186); assay: SPR
T4 construct: also called CD137-Fc chimeric protein
How it was run: as §1

[8] = biological target: cynomolgus CD137-Fc chimeric protein (cynomolgus monkey, UniProt A9YYE7 24-186); assay: SPR
How it was run: as §1

[9] = biological target: T1, CD137 on Jurkat NFkB reporter cells; assay: cell-based or functional assay; remark: listed apart in the source
[10] = biological target: T5, biotinylated human PDL1 (human, UniProt Q9NZQ7 19-238, limits assumed, biotinylated); assay: competition ELISA PD-1/PDL1
T5 construct: also called biotinylated PDL1

[11] = biological target: human PDL1 on cells (human, UniProt Q9NZQ7 19-290); assay: cell-based or functional assay
[12] = biological target: T5, biotinylated human PDL1; assay: competition ELISA B7.1/PDL1
How it was run: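 IC₅₀ was derived by four-parameter logistic fitting of reference-subtracted A450/690 readings. The signal came from streptavidin-polyHRP40 (10 ng/ml) with a 6-minute TMB reaction detecting biotinylated PDL1 bound to the plate. Pre-mixed samples sat 1 h at RT before a 1.5 h plate incubation.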

[13] = biological target: T1, CD137 on Jurkat NFkB reporter cells; assay: cell-based or functional assay; remark: listed apart in the source
[14] = biological target: T1, CD137 on Jurkat NFkB reporter cells; assay: cell-based or functional assay; remark: listed apart in the source
[15] = biological target: T1, CD137 on Jurkat NFkB reporter cells; assay: cell-based or functional assay; remark: listed apart in the source
[16] = biological target: T1, CD137 on Jurkat NFkB reporter cells; assay: cell-based or functional assay; remark: listed apart in the source
[17] = biological target: T1, CD137 on Jurkat NFkB reporter cells; assay: cell-based or functional assay; remark: listed apart in the source

EC50, NFkB reporter, CHO-PDL1 [1]: 79.5 ng/mL and 104 ng/mL and 86.5 ng/mL
Top of curve fit, NFkB reporter, CHO-PDL1 [1]: 100
EC50, NFkB reporter, CHO-PDL1 [2]: 79.1 ng/mL
EC50, NFkB reporter, CHO-PDL1, 6 h [2]: 56.5 ng/mL
EC50, NFkB reporter, CHO-PDL1, 6 h, +HSA [2]: 77.7 ng/mL
EC50, NFkB reporter, CHO-PDL1, 24 h [2]: 46.6 ng/mL
EC50, NFkB reporter, CHO-PDL1, 24 h, +HSA [2]: 78.2 ng/mL
EC50, NFkB reporter, HCC827 with IFNg [2]: 114 ng/mL and 145 ng/mL and 108 ng/mL
EC50, NFkB reporter, HCC827 with IFNg, 24 h [2]: 52.8 ng/mL
EC50, NFkB reporter, HCC827 without IFNg [2]: 212 ng/mL and 110 ng/mL and 112 ng/mL
EC50, NFkB reporter, HCC827 without IFNg, 24 h [2]: 47.5 ng/mL
Top of curve fit, NFkB reporter, CHO-PDL1 [2]: 102
Top of curve fit, NFkB reporter, HCC827 with IFNg [2]: 100
Top of curve fit, NFkB reporter, HCC827 without IFNg [2]: 100
Molecule: urelumab (antibody)

EC50, NFkB reporter, CHO-PDL1 [3]: 5.13 ng/mL and 4.86 ng/mL and 6.3 ng/mL
EC50, NFkB reporter, CHO-PDL1, 6 h [4]: 7.84 ng/mL
EC50, NFkB reporter, CHO-PDL1, 6 h, +HSA [4]: 7.92 ng/mL
Kd [5]: 600 nM
koff [5]: 0.18 s⁻¹
kon [5]: 290000 M⁻¹ s⁻¹
koff [6]: 0.00014 s⁻¹
kon [6]: 2.1e+06 M⁻¹ s⁻¹
koff [7]: 0.00076 s⁻¹
kon [7]: 240000 M⁻¹ s⁻¹
Kd [8]: 2.1 nM
koff [8]: 0.0007 s⁻¹
kon [8]: 340000 M⁻¹ s⁻¹
IC50 (ng/ml), NFkB reporter, CHO-PD-L1 [9]: 11.7 ng/mL
IC50 (ng/ml), NFkB reporter, HCC827 + IFNg [9]: 8.88 ng/mL
IC50 (ng/ml), NFkB reporter, HCC827 - IFNg [9]: 13.1 ng/mL
max. activation (%), NFkB reporter, CHO-PD-L1 [9]: 499%
max. activation (%), NFkB reporter, HCC827 + IFNg [9]: 134%
max. activation (%), NFkB reporter, HCC827 - IFNg [9]: 111%
rel. IC50 (urelumab/test), NFkB reporter, CHO-PD-L1 [9]: 6.75 fold
rel. IC50 (urelumab/test), NFkB reporter, HCC827 + IFNg [9]: 16.3 fold
rel. IC50 (urelumab/test), NFkB reporter, HCC827 - IFNg [9]: 8.42 fold
IC50 [10]: 8.35 ng/mL
rel. IC50 (IC50 avelumab/IC50 test) [10]: 0.17 fold
IC50 (ng/ml), NF-AT potency assay [11]: 137 ng/mL
rel. IC50 (avelumab/test) [11]: 0.28 fold
IC50 [12]: 0.0122 µg/mL
rel. IC50 (IC50 avelumab/IC50 test) [12]: 0.59 fold
EC50, NFkB reporter, HCC827 with IFNg, 24 h [13]: 7.51 ng/mL
EC50, NFkB reporter, HCC827 without IFNg, 24 h [13]: 9.52 ng/mL
EC50, NFkB reporter, CHO-PDL1, 24 h [14]: 13.8 ng/mL
EC50, NFkB reporter, CHO-PDL1, 24 h, +HSA [14]: 14.8 ng/mL
EC50, NFkB reporter, HCC827 with IFNg [15]: 9.27 ng/mL and 8.88 ng/mL and 9.23 ng/mL
EC50, NFkB reporter, HCC827 without IFNg [16]: 11.5 ng/mL and 13.1 ng/mL and 13 ng/mL
EC50, NFkB reporter, CHO-PDL1 [17]: 11.7 ng/mL
B1: PRO885 (bispecific antibody)
chain: DIQMTQSPSSLSASVGDRVTITCQASQSINDYLAWYQQKPGKAPKLLIYKASTLASGVPSRFSGSGSGTDFTLTISSLQPEDFATYYCQQGYIITDIDNVFGTGTKVTVLGGGGGSQVQLQESGPGLVKPSETLSLTCKVSGFSFSNSYWICWIRQPPGKGLEWIGCTFVGSSDSTYYANWAKGRVTISVDSSKNQFSLKLSSVTAADTAVYYCARHPSDAVYGYANNLWGQGTLVTVSSGGGGSGGGGSGGGGSGGGGSIQMTQSPSSLSASVGDRVTITCQASQSINNVLAWYQQKPGKAPKLLIYRASTLASGVPSRFSGSGSGTDFTLTISSLQPEDFATYYCQSSYGNYGDFGTGTKVTVLGGGGGSQVQLQESGPGLVKPSETLSLTCKVSGFSFSSGYDMCWIRQPPGKGLEWIGCVVAGSVDITYYASWAKGRVTISVDSSKNQFSLKLSSVTAADTAVYYCARKDAYSDAFNLWGQGTLVTVSS
notes: scDb anti-PDL1 x CD137; also called 38-02-A04 sc01 scDb-i/33-03-G02 sc01 scDb-o
